# Test results reported in US20120266260A1.
# Legend:
# [1] = biological target: synthetic IgA1 hinge-region glycopeptide linked to BSA with 3 GalNAc residues (HR-GalNAc-BSA) (bovine) (UniProt P02769); assay: ELISA, wells with HR-GalNAc-BSA treated with unlabeled HAA (20 ug/ml); competitor: IgG from cell lines of IgAN patients
# [2] = biological target: Gal-deficient IgA1 (Mce) myeloma protein (human) (UniProt P01876); assay: Western blot, membrane pre-incubated with unlabeled HAA (20 ug/ml); competitor: IgG purified from the serum of an IgAN patient; densitometry
substance,measurement,setting,value
Helix aspersa agglutinin (HAA),percent inhibition of IgG binding,[1],78%
same,percent reduction of IgG binding,[2],66%
